Assay results published in the supplement of paper PMC7125110.
± gives the standard error. For part of these data: This sample holds only a part of the variants without activity.

B1: glmS ribozyme (parent)
chain: AUAAAAGCGCCAGAACUACAGAAAUGUAGUUGACGAGGAGGAGGUUUAUCGAAUUUUCGGCGGAUGCCUCCAAA

How the values were obtained:
Conditions in all cases: with glucosamine-6-phosphate
[1] = variants of: B1; assay: kcat; higher = faster cleavage; RNA array
Method in brief: (§1)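 Tracking of barcoded ribozyme variants used a hybridised Cy3 probe at 37 °C, after in situ transcription by E. coli RNA polymerase on sequenced MiSeq chips. The flowed solution held 40 μM to 10 mM glucosamine-6-phosphate in HEPES/KCl/Mg(OAc)2 buffer, and imaging ran over ~14 h. kobs was taken from exponential decay fits of normalised per-tile medians, and kcat and KM from weighted Michaelis–Menten fits.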

[2] = variants of: B1; assay: KM; higher = weaker cofactor use; RNA array
Method in brief: as §1

[3] = variants of: B1; assay: self-cleavage kobs at 40 uM GlcN6P; higher = faster cleavage; RNA array
Method in brief: as §1

[4] = variants of: B1; assay: self-cleavage kobs at 160 uM GlcN6P; higher = faster cleavage; RNA array
Method in brief: as §1

[5] = variants of: B1; assay: self-cleavage kobs at 640 uM GlcN6P; higher = faster cleavage; RNA array
Method in brief: as §1

[6] = variants of: B1; assay: self-cleavage kobs at 2500 uM GlcN6P; higher = faster cleavage; RNA array
Method in brief: as §1

[7] = variants of: B1; assay: self-cleavage kobs at 10000 uM GlcN6P; higher = faster cleavage; RNA array
Method in brief: as §1

Variant	kcat [1] [s⁻¹]	KM [2] [µM]	self-cleavage kobs at 40 uM GlcN6P [3] [s⁻¹]	self-cleavage kobs at 160 uM GlcN6P [4] [s⁻¹]	self-cleavage kobs at 640 uM GlcN6P [5] [s⁻¹]	self-cleavage kobs at 2500 uM GlcN6P [6] [s⁻¹]	self-cleavage kobs at 10000 uM GlcN6P [7] [s⁻¹]
U56A	0.0171 ± 0.0053	1750 ± 650	0.000397 ± 7.8e-06	0.00127 ± 7.4e-05	0.00479 ± 0.00018	0.00725 ± 0.00034	0.0213 ± 0.00079
A53C U69G	4.01e-05 ± 8e-06				5.28e-05 ± 1.3e-05	4.25e-05 ± 8.8e-06	
A12C A15C	0.00209 ± 0.00064	2000 ± 880	6.78e-05 ± 1.4e-05	0.000151 ± 2.5e-05	0.000451 ± 9e-05	0.000976 ± 0.00019	0.00216 ± 0.00038
G13C U30C	0.000129 ± 2e-05	1470 ± 480	< 1e-05		4.05e-05 ± 1.7e-05	8.07e-05 ± 2e-05	
G13A U31A G32A C50G C67G	4.8e-05 ± 1.5e-05				4.97e-05 ± 2.2e-05	5.25e-05 ± 1.8e-05	
G13C U56C	2.35e-05 ± 6.9e-08	1100 ± 19	< 1e-05				2.11e-05 ± 8e-06
U31G	0.0277 ± 0.0077	3080 ± 1000	0.000403 ± 7.4e-06	0.00114 ± 4.7e-05	0.00394 ± 0.00013	0.0126 ± 0.00057	0.0227 ± 0.00081
C50A A64G	1.03e-05 ± 2.3e-07	106 ± 36					
C11U G40A	0.000548 ± 0.00025				8.42e-05 ± 2.2e-05	0.000128 ± 3e-05	0.000374 ± 6.8e-05
C11G G59U	0.000116 ± 2.9e-05					0.000106 ± 2.1e-05	9.62e-05 ± 1.5e-05
A14C U57A U69A	3.51e-05 ± 1.3e-05				4.77e-05 ± 2.2e-05		
G44C	0.0002 ± 2.4e-05	1980 ± 570			4.33e-05 ± 1.8e-06	0.000127 ± 2.9e-06	0.000159 ± 3.5e-06
G40U U55C	0.000228 ± 3.6e-06	6810 ± 240					0.000135 ± 1.7e-05
A12C A14U	0.000416 ± 3.2e-05	2270 ± 350		3.61e-05 ± 9.3e-06	9.07e-05 ± 1e-05	0.000202 ± 2.4e-05	0.000348 ± 2.9e-05
U47G C50A C67U	4.13e-05 ± 1.8e-05				6.02e-05 ± 2.6e-05	7.44e-05 ± 3.1e-05	
A15C A42G	0.00745 ± 0.00078	1450 ± 220	0.000206 ± 3.8e-05	0.000843 ± 0.00038	0.00216 ± 0.00062	0.00411 ± 0.001	0.00721 ± 0.0015
U54G C58U	0.000129 ± 7.5e-06	6130 ± 820				3.75e-05 ± 1.2e-05	7.98e-05 ± 9.4e-06
